# B1: Viral protein p35: known viral protein caspase inhibitor, expressed from YCpGAL1-p35-U vector (protein)
# chain: MCVIFPVEIDVSQTIIRDCQVDKQTRELVYINKIMNTQLTKPVLMMFNISGPIRSVTRKNNNLRDRIKSKVDEQFDQLERDYSDQMDGFHDSIKYFKDEHYSVSCQNGSVLKSKFAKILKSHDYTDKKSIEAYEKYCLPKLVDERNDYYVAVCVLKPGFENGSNQVLSFEYNPIGNKVIVPFAHEINDTGLYEYDVVAYVDSVQFDGEQFEEFVQSLILPSSFKNSEKVLYYNEASKNKSMIYKALEFTTESSWGKSEKYNWKIFCNGFIYDKKSKVLYVKLHNVTSALNKNVILNTIK
# B2: Human Tissue Inhibitor of Metalloprotease-3: product encoded by human brain cDNA, identified as caspase inhibitor (protein)
# chain: CTCSPSHPQDAFCNSDIVIRAKVVGKKLVKEGPFGTLVYTIKQMKMYRGFTKMPHVQYIHTEASESLCGLKLEVNKYQYLLTGRVYDGKMYTGLCNFVERWDQLTLSQRKGLNYRYHLGCNCKIKSCYYLPCFVTSKNECLWTDMLSNFGYPGYQSKHYACIRQKGGYCSWYRGWAPPDKSIINATDP
# B3: Human Myelin Basic Protein: product encoded by human brain cDNA, identified as caspase inhibitor (protein)
# chain: MASQKRPSQRHGSKYLATASTMDHARHGFLPRHRDTGILDSIGRFFGGDRGAPKRGSGKDSHHPARTAHYGSLPQKSHGRTQDENPVVHFFKNIVTPRTPPPSQGKGRGLSLSRFSWGAEGQRPGFGYGGRASDYKSAHKGFKGVDAQGTLSKIFKLGGRDSRSGSPMARR
# B4: Human Ubiquitin C-terminal Hydrolase: product encoded by human brain cDNA; also known as UHX1 (protein)
# chain: MAVAPRLFGGLCFRFRDQNPEVAVEGRLPISHSCVGCRRERTAMATVAANPAAAAAAVAAAAAVTEDREPQHEELPGLDSQWRQIENGESGRERPLRAGESWFLVEKHWYKQWEAYVQGGDQDSSTFPGCINNATLFQDEINWRLKEGLVEGEDYVLLPAAAWHYLVSWYGLEHGQPPIERKVIELPNIQKVEVYPVELLLVRHNDLGKSHTVQFSHTDSIGLVLRTARERFLVEPQEDTRLWAKNSEGSLDRLYDTHITVLDAALETGQLIIMETRKKDGTWPSAQLHVMNNNMSEEDEDFKGQPGICGLTNLGNTCFMNSALQCLSNVPQLTEYFLNNCYLEELNFRNPLGMKGEIAEAYADLVKQAWSGHHRSIVPHVFKNKVGHFASQFLGYQQHDSQELLSFLLDGLHEDLNRVKKKEYVELCDAAGRPDQEVAQEAWQNHKRRNDSVIVDTFHGLFKSTLVCPDCGNVSVTFDPFCYLSVPLPISHKRVLEVFFIPMDPRRKPEQHRLVVPKKGKISDLCVALSKHTGISPERMMVADVFSHRFYKLYQLEEPLSSILDRDDIFVYEVSGRIEAIEGSREDIVVPVYLRERTPARDYNNSYYGLMLFGHPLLVSVPRDRFTWEGLYNVLMYRLSRYVTKPNSDDEDDGDEKEDDEEDKDDVPGPSTGGSLRDPEPEQAGPSSGVTNRCPFLLDNCLGTSQWPPRRRRKQLFTLQTVNSNGTSDRTTSPEEVHAQPYIAIDWEPEMKKRYYDEVEAEGYVKHDCVGYVMKKAPVRLQECIELFTTVETLEKENPWYCPSCKQHQLATKKLDLWMLPEILIIHLKRFSYTKFSREKLDTLVEFPIRDLDFSEFVIQPQNESNPELYKYDLIAVSNHYGGMRDGHYTTFACNKDSGQWHYFDDNSVSPVNENQIESKAAYVLFYQRQDVARRLLSPAGSSGAPASPACSSPPSSEFMDVN
# B5: Human Death Associated Protein 1: product encoded by human brain cDNA; also known as DAP-1 (protein)
# chain: MSSPPEGKLETKAGHPPAVKAGGMRIVQKHPHTGDTKEEKDKDDQEWESPSPPKPTVFISGVIARGDKDFPPAAAQVAHQKPHASMDKHPSPRTQHIQQPRK
# B6: Human hnRNP D: product encoded by human brain cDNA, identified as caspase inhibitor (protein, UniProt Q14103 2-355, looked up)
# Heterogeneous nuclear …: SEEQFGGDGAAAAATAAVGGSAGEQEGAMVAATQGAAAAAGSGAGTGGGTASGGTEGGSAESEGAKIDASKNEEDEGHSNSSPRHSEAATAQREEWKMFIGGLSWDTTKKDLKDYFSKFGEVVDCTLKLDPITGRSRGFGFVLFKESESVDKVMDQKEHKLNGKVIDPKRAKAMKTKEPVKKIFVGGLSPDTPEEKIREYFGGFGEVESIELPMDNKTNKRRGFCFITFKEEEPVKKIMEKKYHNVGLSKCEIKVAMSKEQYQQQQQWGSRGGFAGRARGRGGGPSQNWNQGYSNYWNQGYGNYGYNSQGYGGYGGYDYTGYNNYYGYGDYSNQQSGYGKVSRRGGHQNSYKPY
# B7: Glutamate-Binding Subunit of a Human NMDA Receptor Complex: product encoded by human brain cDNA, identified as caspase inhibitor (protein)
# chain: MSHEKSFLVSGDNYPPPNPGYPGGPQPPMPPYAQPPYPGAPYPQPPFQPSPYGQPGYPHGPSPYPQGGYPQGPYPQGGYPQGPYPQEGYPQGPYPQGGYPQGPYPQSPFPPNPYGQPQVFPGQDPDSPQHGNYQEEGPPSYYDNQDFPATNWDDKSIRQAFIRKVFLVLTLQLSVTLSTVSVFTFVAEVKGFVRENVWTYYVSYAVFFISLIVLSCCGDFRRKHPWNLVALSVLTASLSYMVGMIASFYNTEAVIMAVGITTAVCFTVVIFSMQTRYDFTSCMGVLLVSMVVLFIFAILCIFIRNRILEIVYASLGALLFTCFLAVDTQLLLGNKQLSLSPEEYVFAALNLYTDIINIFLYILTIIGRAKE
# Biological target: T1, human caspase-8β (Homo sapiens, UniProt Q14790)
# T1 construct: expressed in transfected cells; host or cells: Saccharomyces cerevisiae FY250, single-copy ARS/CEN vector YCpGAL1-caspase-8β-L, GAL1 promoter
# Assay: Yeast screening method: suppression of caspase-8β-induced lethality in S. cerevisiae FY250 double transformants on galactose medium
# Format: cell-based
# Settings: FY250 co-transformed with YCpGAL1-p35-U and YCpGAL1-caspase-8β-L; SC-leucine-uracil medium with galactose
# Excerpt: The invention includes a screening method of determining whether a compound is a caspase modulator. […] A difference between the viability indicator of the first cell and the viability indicator of the second cell is an indication that the compound is a caspase modulator.
# As described herein, the transformant expresses the caspase when an inducer of the inducible promoter of the caspase vector is provided to the caspase transformant. When the caspase transformant expresses the caspase, cytotoxicity ensues in the caspase transformant. If an inhibitor of the caspase is provided to the caspase transformant prior to the onset of cytotoxicity, the caspase transformant may be enabled to survive expression of the caspase or the onset of cytotoxicity may be delayed.
# The gene encoding p35 was cloned into a yeast-based expression vector designated YCpGAL1-U (wherein U designates a URA3 selectable marker) to yield a YCpGAL1-p35-U inhibitor vector. Yeast cells were co-transformed with the inhibitor vector, YCpGAL1-p35-U, and with the caspase vector, YCpGAL1-caspase-8β-L, to yield a double transformant. Double transformants were plated on SC-leucine-uracil medium supplemented with dextrose to repress GAL1 promoter function. Serial ten-fold dilutions of individual double transformants grown in SC-leucine-uracil medium containing dextrose were prepared and spotted onto SC-leucine-uracil medium comprising dextrose or galactose.
# Individual viable colonies of double transformant are isolated, and the test vector comprising the unknown cDNA is isolated.
# The screening method used in this Example was performed as follows. A yeast double transformant was prepared by transforming S. cerevisiae strain FY250 with two yeast expression vectors. The first yeast expression vector comprised cDNA encoding a self-activating form of human caspase-8β operably linked to a GAL1 promoter and a LEU2 selectable marker. This first vector was a single copy vector and was designated YCpGAL1-caspase-8β-L. A plurality of second yeast expression vectors was used, each comprising a single random human cDNA sequence operably linked to a GAL1 promoter and a URA3 selectable marker. The cDNA sequences used to generate the plurality of second yeast expression vectors were obtained from a library of cDNAs prepared from human brain cells. The second vectors were multicopy vectors.
# Double transformants were propagated on plates containing SC-leucine-uracil agar comprising dextrose. Colonies of double transformants were replica plated on plates containing medium comprising galactose, whereby expression of caspase-8β and of any product encoded by the cDNA of the second vector was induced. […] The second vector was recovered from individual colonies of double transformants which were able to survive on the galactose-containing medium and used, along with the first vector, to transform fresh FY250 cells. […] The identity of individual products encoded by the cDNA of individual second vectors was established by determining the nucleotide sequence of the cDNA and comparing the sequence with databases of known human gene sequences, including Genbank, the EST Database, and the Human Genome Database.
# T1 sequence (Q14790 1-464 isoform Q14790-2): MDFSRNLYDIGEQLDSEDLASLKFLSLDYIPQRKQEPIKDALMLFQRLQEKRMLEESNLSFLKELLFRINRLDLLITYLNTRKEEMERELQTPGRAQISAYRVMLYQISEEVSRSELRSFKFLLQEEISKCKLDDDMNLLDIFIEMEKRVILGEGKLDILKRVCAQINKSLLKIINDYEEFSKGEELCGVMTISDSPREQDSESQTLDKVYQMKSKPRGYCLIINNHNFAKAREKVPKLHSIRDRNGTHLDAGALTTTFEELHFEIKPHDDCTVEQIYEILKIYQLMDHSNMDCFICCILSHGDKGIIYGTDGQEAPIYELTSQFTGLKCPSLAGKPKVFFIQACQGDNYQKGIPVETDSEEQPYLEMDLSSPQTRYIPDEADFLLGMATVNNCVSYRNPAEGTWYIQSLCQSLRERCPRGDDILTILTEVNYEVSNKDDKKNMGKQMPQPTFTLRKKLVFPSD
row,Molecule,survival of double transformants on galactose-containing test medium
1,B1,survived on this medium

# Same assay, conditions: FY250 double transformants, GAL1-driven expression, galactose-containing medium
row,Molecule,identified as a caspase inhibitor (product of human brain cDNA suppressing caspase-8β-induced cell death)
1,B2,caspase inhibitor
2,B3,caspase inhibitor
3,B4,caspase inhibitor
4,B5,caspase inhibitor
5,B6,caspase inhibitor

# Same assay, conditions: Table 1 Caspase Modulators; identified using the screening method of the invention
row,Molecule,Caspase Inhibitor
1,B2,✓
2,B7,✓
3,B3,✓
4,B4,✓
5,B5,✓
6,B1,✓
7,B6,✓

# Source: patent publication US20010006793A1, “MODULATORS OF EUKARYOTIC CASPASES” (priority 1998, published 2001)
